From the Human Domainome abundance scans (Beltran et al. 2025)
± gives the uncertainty stated by the source.

B1: Tudor domain-containing protein 3, residues 554 to 611; numbered along this chain, Q9H7E2 (parent)
chain: KMWKPGDECFALYWEDNKFYRAEVEALHSSGMTAVVKFIDYGNYEEVLLSNIKPIQTE

Variants of: B1
Assay: abundance fitness (aPCA) (normalised: wild type 0, dead -1); higher = more abundant; growth selection in yeast, the domain comes from the species named
Conditions: Homo sapiens

C9T and C9I are within error of each other in abundance fitness: -1.04 ± 0.16 for the first, -0.975 ± 0.3 for the second.

Going from K18M to K18W, the abundance fitness falls from -0.033 ± 0.084 to -0.736 ± 0.11.

K18E and K18V are within error of each other in abundance fitness: -0.179 ± 0.087 for the first, -0.255 ± 0.069 for the second.

First: K18N
Second: K18P
The abundance fitness of the first is higher: -0.228 ± 0.11 for the first, -0.949 ± 0.16 for the second.

K18T and K18H are within error of each other in abundance fitness: -0.087 ± 0.087 for the first, -0.179 ± 0.12 for the second.

K18L and K18A are within error of each other in abundance fitness: -0.254 ± 0.075 for the first, -0.126 ± 0.089 for the second.

First: K18R
Second: K18I
The abundance fitness of the first is higher: -0.095 ± 0.056 for the first, -0.273 ± 0.12 for the second.

K18S and K18C are within error of each other in abundance fitness: -0.254 ± 0.067 for the first, -0.188 ± 0.08 for the second.

Compared with K18F, K18Q is higher in abundance fitness: -0.917 ± 0.26 for the first, -0.144 ± 0.086 for the second.

E15N and E15W are within error of each other in abundance fitness: -0.105 ± 0.1 for the first, -0.27 ± 0.074 for the second.

E15T and E15L are within error of each other in abundance fitness: -0.139 ± 0.073 for the first, -0.064 ± 0.06 for the second.

E15R and E15Y are within error of each other in abundance fitness: 0.022 ± 0.056 for the first, 0.099 ± 0.11 for the second.

E15D and E15F are within error of each other in abundance fitness: -0.336 ± 0.12 for the first, -0.149 ± 0.1 for the second.

E15I and E15G are within error of each other in abundance fitness: -0.156 ± 0.11 for the first, -0.142 ± 0.062 for the second.

Compared with E15V, E15C is lower in abundance fitness: -0.026 ± 0.061 for the first, -0.21 ± 0.098 for the second.

Going from E15S to E15K, the abundance fitness rises from -0.114 ± 0.06 to 0.081 ± 0.082.

E15Q and E15H are within error of each other in abundance fitness: -0.111 ± 0.11 for the first, -0.251 ± 0.11 for the second.

Compared with E15P, W3D is lower in abundance fitness: -0.185 ± 0.093 for the first, -1.31 ± 0.34 for the second.

Compared with W3M, W3E is lower in abundance fitness: -0.079 ± 0.11 for the first, -0.866 ± 0.17 for the second.

Going from W3K to W3F, the abundance fitness rises from -1.01 ± 0.3 to 0.031 ± 0.12.

W3C and W3N are within error of each other in abundance fitness: -0.509 ± 0.12 for the first, -0.737 ± 0.28 for the second.

Going from W3A to W3Y, the abundance fitness rises from -0.634 ± 0.09 to -0.312 ± 0.12.

Going from W3Q to W3I, the abundance fitness rises from -0.721 ± 0.4 to -0.059 ± 0.13.

W3H and W3R are within error of each other in abundance fitness: -0.842 ± 0.21 for the first, -1.01 ± 0.11 for the second.

First: W3G
Second: W3V
The abundance fitness of the first is lower: -0.856 ± 0.081 for the first, -0.053 ± 0.068 for the second.

Going from W3P to W3S, the abundance fitness falls from -0.314 ± 0.11 to -0.885 ± 0.1.

First: W3T
Second: Y13C
The abundance fitness of the first is lower: -0.615 ± 0.1 for the first, 0.068 ± 0.1 for the second.

Compared with Y13Q, Y13I is lower in abundance fitness: -0.292 ± 0.092 for the first, -0.975 ± 0.24 for the second.

Y13F and Y13R are within error of each other in abundance fitness: 0.065 ± 0.11 for the first, 0.069 ± 0.055 for the second.

Y13G and Y13T are within error of each other in abundance fitness: -0.252 ± 0.061 for the first, -0.323 ± 0.089 for the second.

First: Y13A
Second: Y13M
The abundance fitness of the first is higher: -0.02 ± 0.069 for the first, -0.287 ± 0.1 for the second.

Y13L and Y13W are within error of each other in abundance fitness: -0.15 ± 0.072 for the first, -0.06 ± 0.075 for the second.

Going from Y13V to Y13N, the abundance fitness rises from -0.897 ± 0.1 to 0 ± 0.1.

First: Y13P
Second: Y13K
The abundance fitness of the first is lower: -0.902 ± 0.13 for the first, -0.028 ± 0.093 for the second.

Going from Y13D to F10I, the abundance fitness rises from -0.345 ± 0.15 to -0.076 ± 0.1.

First: F10V
Second: F10P
The abundance fitness of the first is higher: -0.128 ± 0.064 for the first, -0.923 ± 0.15 for the second.

F10L and F10Q are within error of each other in abundance fitness: 0.084 ± 0.064 for the first, -0.006 ± 0.099 for the second.

F10C and F10D are within error of each other in abundance fitness: -0.2 ± 0.092 for the first, -0.267 ± 0.1 for the second.

Going from F10T to F10Y, the abundance fitness rises from -0.383 ± 0.087 to 0.026 ± 0.088.

Compared with F10G, F10W is higher in abundance fitness: -0.84 ± 0.077 for the first, -0.051 ± 0.079 for the second.

Going from F10M to F10K, the abundance fitness falls from 0.068 ± 0.085 to -0.32 ± 0.11.

First: F10E
Second: F10A
The abundance fitness of the first is higher: 0.023 ± 0.081 for the first, -0.178 ± 0.072 for the second.

F10S and F10H are within error of each other in abundance fitness: -0.234 ± 0.064 for the first, -0.255 ± 0.11 for the second.

First: A22C
Second: A22P
The abundance fitness of the first is higher: -0.488 ± 0.12 for the first, -0.976 ± 0.14 for the second.

A22I and A22Q are within error of each other in abundance fitness: -0.923 ± 0.36 for the first, -0.955 ± 0.15 for the second.

First: A22G
Second: A22F
The abundance fitness of the first is higher: -0.351 ± 0.06 for the first, -0.977 ± 0.25 for the second.

A22N and A22H are within error of each other in abundance fitness: -0.986 ± 0.3 for the first, -0.936 ± 0.21 for the second.

A22M and A22E are within error of each other in abundance fitness: -0.908 ± 0.16 for the first, -1.04 ± 0.13 for the second.

A22D and A22L are within error of each other in abundance fitness: -0.93 ± 0.13 for the first, -0.857 ± 0.093 for the second.

First: A22K
Second: Y20K
The abundance fitness of the first is lower: -1.03 ± 0.14 for the first, 0.072 ± 0.091 for the second.

Y20T and Y20D are within error of each other in abundance fitness: -0.871 ± 0.12 for the first, -1.01 ± 0.17 for the second.

First: Y20A
Second: Y20E
The abundance fitness of the first is higher: -0.228 ± 0.068 for the first, -0.516 ± 0.09 for the second.

Y20N and Y20G are within error of each other in abundance fitness: -0.68 ± 0.18 for the first, -0.732 ± 0.072 for the second.

Going from Y20H to Y20F, the abundance fitness falls from 0.081 ± 0.12 to -0.807 ± 0.17.

First: Y20S
Second: Y20W
The abundance fitness of the first is lower: -0.59 ± 0.083 for the first, -0.305 ± 0.073 for the second.

Y20M and Y20L are within error of each other in abundance fitness: -0.297 ± 0.097 for the first, -0.171 ± 0.059 for the second.

First: Y20P
Second: Y20I
The abundance fitness of the first is lower: -0.918 ± 0.14 for the first, -0.347 ± 0.098 for the second.

Y20C and P5Y are within error of each other in abundance fitness: -0.321 ± 0.12 for the first, -0.447 ± 0.14 for the second.

First: P5W
Second: P5Q
The abundance fitness of the first is lower: -0.926 ± 0.1 for the first, -0.061 ± 0.09 for the second.

P5H and P5V are within error of each other in abundance fitness: -0.133 ± 0.097 for the first, -0.034 ± 0.07 for the second.

Going from P5D to P5L, the abundance fitness rises from -0.763 ± 0.15 to -0.261 ± 0.081.

P5I and P5E are within error of each other in abundance fitness: -0.141 ± 0.16 for the first, -0.187 ± 0.11 for the second.

Compared with P5G, P5S is higher in abundance fitness: -0.61 ± 0.064 for the first, -0.113 ± 0.065 for the second.

P5N and P5R are within error of each other in abundance fitness: 0.03 ± 0.15 for the first, -0.123 ± 0.052 for the second.

First: P5C
Second: P5M
The abundance fitness of the first is higher: -0.201 ± 0.073 for the first, -0.401 ± 0.1 for the second.

P5T and P5A are within error of each other in abundance fitness: -0.024 ± 0.079 for the first, -0.017 ± 0.077 for the second.

First: P5F
Second: M2V
The abundance fitness of the first is lower: -0.529 ± 0.15 for the first, -0.164 ± 0.07 for the second.

M2R and M2P are within error of each other in abundance fitness: -0.254 ± 0.086 for the first, -0.36 ± 0.1 for the second.

M2F and M2I are within error of each other in abundance fitness: -0.194 ± 0.15 for the first, -0.201 ± 0.12 for the second.

Going from M2Y to M2W, the abundance fitness falls from -0.15 ± 0.15 to -0.657 ± 0.13.

M2K and M2N are within error of each other in abundance fitness: -0.36 ± 0.11 for the first, -0.169 ± 0.17 for the second.

M2H and M2Q are within error of each other in abundance fitness: -0.13 ± 0.17 for the first, -0.134 ± 0.14 for the second.

M2S and M2L are within error of each other in abundance fitness: -0.009 ± 0.077 for the first, -0.098 ± 0.075 for the second.

Going from M2G to M2T, the abundance fitness falls from -0.052 ± 0.068 to -0.23 ± 0.091.

G6V and G6I are within error of each other in abundance fitness: -0.928 ± 0.094 for the first, -0.941 ± 0.2 for the second.

Compared with G6R, G6L is lower in abundance fitness: -0.431 ± 0.058 for the first, -0.836 ± 0.083 for the second.

Going from G6W to G6T, the abundance fitness falls from -0.545 ± 0.093 to -0.919 ± 0.13.

Going from G6Q to G6K, the abundance fitness rises from -0.832 ± 0.19 to -0.416 ± 0.1.

G6E and G6P are within error of each other in abundance fitness: -0.845 ± 0.12 for the first, -0.985 ± 0.13 for the second.

G6M and G6N are within error of each other in abundance fitness: -0.922 ± 0.13 for the first, -0.798 ± 0.12 for the second.

Compared with G6H, G6Y is lower in abundance fitness: -0.502 ± 0.12 for the first, -0.971 ± 0.25 for the second.

G6C and G6S are within error of each other in abundance fitness: -0.86 ± 0.093 for the first, -0.776 ± 0.08 for the second.

G6F and G6D are within error of each other in abundance fitness: -0.828 ± 0.12 for the first, -0.874 ± 0.089 for the second.

G6A showed an abundance fitness of -0.785 ± 0.086.
